The test system of series [1] is T1, SepH (Streptomyces venezuelae NRRL B-65442), ORF:b45d4985.
T1 sequence: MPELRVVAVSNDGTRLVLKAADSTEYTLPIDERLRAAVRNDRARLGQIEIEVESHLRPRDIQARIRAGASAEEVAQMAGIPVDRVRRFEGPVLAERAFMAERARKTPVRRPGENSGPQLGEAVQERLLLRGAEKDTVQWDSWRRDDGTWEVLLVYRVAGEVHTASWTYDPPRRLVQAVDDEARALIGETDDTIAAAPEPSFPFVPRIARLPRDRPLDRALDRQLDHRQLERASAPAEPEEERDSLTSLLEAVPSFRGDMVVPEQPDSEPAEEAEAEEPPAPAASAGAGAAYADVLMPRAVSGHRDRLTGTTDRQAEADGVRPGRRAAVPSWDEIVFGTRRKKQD
Nature of the series: EMSA. To be noted: 50 mM HEPES/KOH pH 7.2, 50 mM KCl, 5 mM MgCl2, room temperature, 30 min (EMSA 50 ng probe in 20 uL, 0.5x TBE gel; footprinting 40 uL).

Series [2] shares this test system. Kind of series: DNase I footprinting. To be noted: 50 mM HEPES/KOH pH 7.2, 50 mM KCl, 5 mM MgCl2, room temperature, 30 min (EMSA 50 ng probe in 20 uL, 0.5x TBE gel; footprinting 40 uL).
Series [3] has as its target SepH-CTD (residues 187-344 of S. venezuelae SepH), purified, untagged (Streptomyces venezuelae). Kind of series: SEC; 30 µM protein, Superose 12 10/300 GL, buffer P (50 mM HEPES pH 7.2, 50 mM KCl, 5 mM MgCl2); size predicted from MW standards.
Series [4] has as its target SepH-G79P (S. venezuelae), purified, untagged (Streptomyces venezuelae). Described as above.
The target in series [5] is FtsZ (S. venezuelae), purified, untagged (Streptomyces venezuelae). Nature of the series: co-sedimentation; high speed (350,000 x g, 15 min); 3.5 µM FtsZ, 0.6 µM SepH or SepH-G79P, with or without 2 mM GTP, buffer P, 30°C; SDS-PAGE, Coomassie, bands quantified.
Series [6] shares this target. Nature of the series: co-sedimentation; high speed (350,000 x g, 15 min); 3.5 µM FtsZ, with or without 0.6 µM SepH, 1 mM GMPCCP, buffer P, 30°C.
In series [7] the target is SepH-NTD (residues 1-186 of S. venezuelae SepH), purified, untagged (Streptomyces venezuelae). Kind of series: SEC; 30 µM protein, Superose 12 10/300 GL, buffer P (50 mM HEPES pH 7.2, 50 mM KCl, 5 mM MgCl2); size predicted from MW standards.
Series [8] addresses FtsZ (S. venezuelae), purified, untagged (Streptomyces venezuelae).
For series [9], the target named is SepH (S. venezuelae), purified, untagged (Streptomyces venezuelae). Kind of series: SEC; 30 µM protein, Superose 12 10/300 GL, buffer P (50 mM HEPES pH 7.2, 50 mM KCl, 5 mM MgCl2); size predicted from MW standards.
Series [10] concerns the molecule itself. Kind of series: SEC; SepHMs, Superose 12 10/300 GL, modified buffer P (50 mM HEPES pH 6.8, 100 mM KCl, 5 mM MgCl2); size predicted from MW standards.

Turning to “GCGGTCGTCGCCGCGGGCGGAGCCGATGCCCATCAGGGCCGAACCGGCCTCGGACATGACCGACTTGACGTCGGCGAAGTCGAGGTTGATCAGGCCCGGGGTGGTGATGAGGTCGGTGATGCCCTGCACACCGCTCAGCAGCACCTGGTCGGCCGACTTGAAGGCGTCGAGCACGGAGACCTGGCGGTCCGAGATCGACAGGAGCCGGTCGTTGGGGATGACGATGAGGGTGTCGACCTCTTCGCGGAGCTCGGCGATGCC (double strand) [vnz_08520 (ftsZ) internal probe]”, the binding result in series [1] is recorded as “no binding”. For “GCTGCTCGTCCCCGCGCAGGCGGAACCCGACGACGTCGTCCTGTCCTGGGAGGGGGAGGACGTGCTCGCCGTACGGCTGCCGCAGCTGTCCGAATCCCTCGATCACATCCTGGCGGCGATGGAGCGGCGGCACGGGATGCCACTGGCCGAGCTGGACCGCAAGGCCAAGCAGGAGGCCGTCCGTCTGCTGGAGGCGCGCGGCGCCTTCGCCGTACGCCATGGAGTGGAGACGGTGGCGGGTGCACTCGGTGTCAGCCGC (double strand) [vnz_30075 promoter region probe]”, the binding result in [2] is “no binding”. Turning to “SepH-CTD (residues 187-344 of S. venezuelae SepH), purified, untagged (domain or fragment)”, in series [3], the stoichiometry N was 4.

For the molecule “SepH-G79P (S. venezuelae), purified, untagged (natural protein)”, in series [4], the stoichiometry N was 4. The percent of SepH-G79P in the pellet (with FtsZ and GTP) in [5] worked out at 50%. As to “FtsZ (S. venezuelae), purified, untagged (natural protein)”, the percent of FtsZ in the pellet (with GMPCCP) in [6] was 88%. Moreover, in series [5], the percent of FtsZ in the pellet (with GTP and SepH) came to 47%; the percent of FtsZ in the pellet (with GTP and SepH-G79P) was 36%; the percent of FtsZ in the pellet (with GTP) was 35%. Take “CCTTCGATCGTCCCTGGTCGGAGCGGCCGGTCGATGATCGAATCGGCGGCTCGGGATGATCACTGCCCGAGTGGGATGCCACCATGCCGACCCATGCGGCGGCTCACTCGAACGGGTCGAACGCGCCGGGGTGCGCGCCCCTCAGGCGCCGTGGGCGCGCCTCTCAGCGGAGAGGACGTGTTCCCCGGGAACGACAAAGCCCCGGTTGGACGGGGGATTCCAACCGGGGCCGATCGCCGTGACGCGAAGGGC (double strand) [vnz_35870 promoter region probe]”: the binding result in [1] and in series [2] was “no binding” throughout. Consider “SepH-NTD (residues 1-186 of S. venezuelae SepH), purified, untagged (domain or fragment)”, for which, in series [7], the stoichiometry N was 2.

As to “SepH (S. venezuelae), purified, untagged (natural protein)”, the critical concentration of FtsZ from the GTPase rate, with 0.6 µM SepH (1.43 µM without SepH) in series [8] was found to be 1.11 µM. Also, the percent of SepH in the pellet (with FtsZ and GMPCCP) in series [6] stood at 98%. In addition, in [9], the stoichiometry N is 4. In [5], this molecule registered a percent of SepH in the pellet (with FtsZ and GTP) of 96%.

B1: SepHMs-6xHis (SepH from M. smegmatis), purified (natural protein, Mycobacterium smegmatis mc2 155, UniProt A0R430 1-276, looked up)
chain: MRELRVVGLDVDGKRIICETADSAEMFTLRVDDRLRAALRGDKVASNQTEIDLEVQSVLRPKEIQAKIRAGASVEQLAAAAGVPVERVERFAHPVLLERARAAELATAAHPVLADGPSVLTLLETVTKALVARGLDPDAVAWDAWRNEDSRWTVQLAWKAGRSDNVAHFRFTPGSHGGLVTASDDAAHQLINPDFARPLRPVAAVPQLEFEAPQPAQPAAPPQPAQAVPTPEPAPAPEQEPEPAPAPAPKRSRKARATVPAWEDVLLGVRSSGTQR
notes: SepH homolog of Mycobacterium smegmatis mc2 155, MSMEG_5685, in pET21b (pSS561); Tetramer predicted from size exclusion chromatography; also called SepHMs-His6; SepH-6xHis; source: E. coli Rossetta (DE3), purified (HisTrap); not shown: His6, C-terminal, kept
Regarding B1, the “stoichiometry N” value in [10] is 4.

The record behind these values is paper PMC7968930, “A conserved cell division protein directly regulates FtsZ dynamics in filamentous and unicellular actinobacteria” (eLife, 2021).
